We go through three molecules from patent US20230279141A1 (MINERVA BIOTECHNOLOGIES, published 2023).

No end group written: not given here.

In assay [1] the target is T1, recombinant human NME7-AB (human, UniProt Q9Y5B8 92-376).
T1 construct: Monomer with A and B domains; also called NME-AB
T1 sequence: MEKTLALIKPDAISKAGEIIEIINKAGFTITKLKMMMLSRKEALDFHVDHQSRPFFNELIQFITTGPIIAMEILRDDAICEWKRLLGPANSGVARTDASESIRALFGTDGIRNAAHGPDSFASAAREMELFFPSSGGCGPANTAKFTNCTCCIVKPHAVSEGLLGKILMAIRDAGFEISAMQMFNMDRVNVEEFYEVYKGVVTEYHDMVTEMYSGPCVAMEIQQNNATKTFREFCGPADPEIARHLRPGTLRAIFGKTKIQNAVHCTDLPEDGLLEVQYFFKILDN
Put plainly: ELISA, plate coated with recombinant NME7-AB (FIG. 24). (In general: ELISA stands for enzyme-linked immunosorbent assay.)

The target of assay [2] is T1, recombinant human NME7-AB. Put plainly: sandwich ELISA, PSMGFR-Cys-BSA on the plate, second tagged PSMGFR in solution (FIG. 1). How it is done:
The PSMGFR peptide bearing a C-terminal Cysteine (PSMGFR-Cys) was covalently coupled to BSA using Imject Maleimide activated BSA kit (Thermo Fisher). PSMGFR-Cys coupled BSA was diluted to 10 ug/mL in 0.1M carbonate/bicarbonate buffer pH 9.6 and 50 uL was added to each well of a 96 well plate. After overnight incubation at 4° C., the plate was washed twice with PBS-T and a 3% BSA solution was added to block remaining binding site on the well. After 1 h at RT the plate was washed twice with PBS-T and NME7, diluted in PBS-T+1% BSA, was added at different concentrations. After 1 h at RT the plate was washed 3× with PBS-T and anti-NM23-H7 (B-9, Santa Cruz Biotechnology), diluted in PBS-T+1% BSA, was added at 1/500 dilution. […] After 1 h at RT the plate was washed 3× with PBS-T and binding of NME7 was measured at 415 nm using ABTS solution (Pierce). […]
After 1 h at RT the plate was washed 3× with PBS-T and His-Tagged PSMGFR peptide (PSMGFR-His) or biotinylated PSMGFR peptide (PSMGFR-biotin), diluted in PBS-T+1% BSA, was added at different concentration. […] After 1 h at RT the plate was washed 3× with PBS-T and binding of PSMGFR peptide to NME7 already bound to another PSMGFR peptide (which could not signal by anti-His antibody or by streptavidin) coupled BSA was measured at 415 nm using a ABTS solution (Pierce).

B1: anti-NME7AB monoclonal antibody 5F3A5D4 (antibody, V domains shown)
VH: VQLQQSGPDLVKPGTSVKISCKTSGNTFTEYTMHWVKQSHGKSLEWIGGFNPNNGVTNYNQKFKGKATLTVDKSSSTAYMELRSLTSEDSAVYYCARRYYHSTYVFYFDSWGQGTTLTVSS
VL: DIQMTQTTSSLSASLGDRVTISCSASQGISNYLNWFQQKPDGTIKLLIYYTSSLHSGVPSRFSGSGSGTDYSLTISNVEPEDIATYYCQQYSKLPYTFGGGTKLEIKR
notes: Mouse monoclonal
Consider B1, for which the binding result in assay [1] was “binds”.

B2: PSMGFR peptide (MUC1* extra cellular domain peptide) (peptide)
peptide: GTINVHDVETQFNQYKTEAASRYNLTISDVSVSDVPFPFSAQSGA
modifications: also: also used with C-terminal Cys coupled to BSA, or His-tagged or biotinylated
notes: also called MUC1* peptide; FLR
Turning to B2, the binding result in assay [2] is recorded as “binds”.

B3: anti-NME7AB monoclonal antibody 8F9A5A1 (antibody, V domains shown)
VH: IQLVQSGPELKKPGETVKISCKASGYTFTNYGMNWVKQAPGKGLKWMGWINTYTGEPTYVDDFKGRFAFSLETSATTAYLQINNLKNEDTSTYFCARLRGIRPGPLAYWGQGTLVTVSA
VL: EILLTQSPAIIAASPGEKVTITCSASSSVSYMNWYQQKPGSSPKIWIYGISNLASGVPARFSGSGSGTSFSFTINSMEAEDVATYYCQQRSSYPPTFGGGTKLEIKR
notes: Mouse monoclonal
As for B3, the binding result in assay [1] is listed as “binds”.
